Assay results as given in patent US20250163160A1 (Amgen, published 2025).

Experiments:
[1] = molecular target: T1, human FGF21 receptor (FGF21R): full length human FGFR1c and full length human β-Klotho co-expressed on cells (human, UniProt P11362 22-822; Q86Z14 53-1044); assay: cell-based or functional assay
[2] = molecular target: T1, human FGF21 receptor (FGF21R): full …; assay: cell-based or functional assay; remark: listed apart in the source

| EC50 (nM), Erk-phosphorylation, human adipocyte assay [1] [nM] | EC50 (read off the curve); luciferase reporter (RLU) in AM-1/D FGFR1c+β-Klotho Luc cells, FGF21 alone (0 nM 39F11) [2] [nM] | Binder |
| --- | --- | --- |
| 0.63 |  | 16H7 variant, heavy chain H3, light chain D49A (antibody, human IgG2, lambda, V domains shown) VH: not shown VL: SYVLTQPPSVSVAPGQTARITCGGNNIGSESVHWYQQKPGQAPVLVVYADSDRPSGIPERFSGSNSGNTATLTISRVEAGDEADYYCQVWDGNSDHVVFGGGTKLTVLG |
| 1.3 |  | 16H7 variant, heavy chain H3, light chain D91A (antibody, human IgG2, lambda, V domains shown) VH: not shown VL: SYVLTQPPSVSVAPGQTARITCGGNNIGSESVHWYQQKPGQAPVLVVYDDSDRPSGIPERFSGSNSGNTATLTISRVEAGDEADYYCQVWAGNSDHVVFGGGTKLTVLG |
|  | 1 to 2 | Fibroblast Growth Factor 21 (FGF21), human (ligand, Alexa 647-NHS label (Example 1); biotin (Example 8, second Biacore analysis)) HPIPDSSPLLQFGGQVRQRYLYTDDAQQTEAHLEIREDGTVGGAADQSPESLLQLKALKPGVIQILGVKTSRFLCQRPDGALYGSLHFDPEACSFRELLLEDGYNVYQSEAHGLPLHLPGNKSPHRDPAPRGPARFLPLPGLPPAPPEPPGILAPQPPDVGSSDPLSMVGPSQGRSPSYAS |
